Experiments:
Test in all cases: biochemical
Settings in all cases: read-out: Percentages of residual activities of the kinase reaction
IKKb = IKKb (Homo sapiens, UniProt O14920)
Description: (§1) Selectivity testing (Table 2) was performed on the commercial basis at the Division of Signal Transduction Therapy, University of Dundee. ATP concentrations that were used in testing were close to the Km value of the kinase.

BRSK1 = BRSK1 (Homo sapiens, UniProt Q8TDC3)
Description: as §1

EF2K = EF2K (Homo sapiens, UniProt O00418)
Description: as §1

RSK2 = RSK2 (Homo sapiens, UniProt P51812)
Description: as §1

GSK3b = GSK3b (Homo sapiens, UniProt P49841)
Description: as §1

TIE2 = TIE2 (Homo sapiens, UniProt Q02763)
Description: as §1

MPSK1 = MPSK1 (Homo sapiens, UniProt O75716)
Description: as §1

Lck = Lck (Homo sapiens, UniProt P06239)
Sequence of Lck (P06239 whole entry, species assumed): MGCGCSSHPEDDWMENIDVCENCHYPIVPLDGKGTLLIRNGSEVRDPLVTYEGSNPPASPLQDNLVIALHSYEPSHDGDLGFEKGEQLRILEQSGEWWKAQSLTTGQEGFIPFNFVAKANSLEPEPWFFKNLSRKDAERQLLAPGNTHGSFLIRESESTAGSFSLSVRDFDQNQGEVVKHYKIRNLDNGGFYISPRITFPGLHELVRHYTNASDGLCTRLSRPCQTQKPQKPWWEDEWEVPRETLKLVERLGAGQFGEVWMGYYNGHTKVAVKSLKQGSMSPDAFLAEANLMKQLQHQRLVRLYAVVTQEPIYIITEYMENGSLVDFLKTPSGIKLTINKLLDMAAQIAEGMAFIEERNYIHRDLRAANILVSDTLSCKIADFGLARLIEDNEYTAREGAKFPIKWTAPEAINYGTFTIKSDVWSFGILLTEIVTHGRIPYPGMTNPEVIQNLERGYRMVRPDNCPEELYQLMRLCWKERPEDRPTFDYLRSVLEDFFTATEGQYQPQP
Description: as §1

MST4 = MST4 (Homo sapiens, UniProt Q9P289)
Description: as §1

PIM1 = PIM1 (Homo sapiens, UniProt P11309)
Description: as §1

ASK1 = ASK1 (Homo sapiens, UniProt Q99683)
Description: as §1

PLK1 = PLK1 (Homo sapiens, UniProt P53350)
Description: as §1

MARK4 = MARK4 (Homo sapiens, UniProt Q96L34)
Description: as §1

GCK = GCK (Homo sapiens, UniProt Q12851)
Sequence of GCK (Q12851 whole entry): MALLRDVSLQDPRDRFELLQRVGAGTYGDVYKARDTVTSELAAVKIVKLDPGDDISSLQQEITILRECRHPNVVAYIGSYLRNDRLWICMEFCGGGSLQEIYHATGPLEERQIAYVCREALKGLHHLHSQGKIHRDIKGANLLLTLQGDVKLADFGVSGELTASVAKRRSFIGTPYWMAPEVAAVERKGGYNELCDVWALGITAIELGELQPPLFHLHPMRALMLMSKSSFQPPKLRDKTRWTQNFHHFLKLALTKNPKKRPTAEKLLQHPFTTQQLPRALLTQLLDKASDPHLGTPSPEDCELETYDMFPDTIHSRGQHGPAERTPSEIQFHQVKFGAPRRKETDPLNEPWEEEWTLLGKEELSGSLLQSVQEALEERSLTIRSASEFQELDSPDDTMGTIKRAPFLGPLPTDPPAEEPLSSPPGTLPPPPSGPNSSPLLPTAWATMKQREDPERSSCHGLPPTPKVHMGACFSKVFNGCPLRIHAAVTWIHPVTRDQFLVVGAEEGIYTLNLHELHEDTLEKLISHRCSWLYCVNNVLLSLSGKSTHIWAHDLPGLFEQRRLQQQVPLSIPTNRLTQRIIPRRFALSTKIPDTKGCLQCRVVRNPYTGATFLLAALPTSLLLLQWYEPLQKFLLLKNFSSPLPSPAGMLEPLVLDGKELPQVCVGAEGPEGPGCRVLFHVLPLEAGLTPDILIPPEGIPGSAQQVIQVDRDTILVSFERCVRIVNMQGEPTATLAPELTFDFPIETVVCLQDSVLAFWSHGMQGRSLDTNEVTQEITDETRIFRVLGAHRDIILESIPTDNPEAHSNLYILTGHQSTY
Description: as §1

JNK2 = JNK2 (Homo sapiens, UniProt P45984)
Sequence of JNK2 (P45984 whole entry, species assumed): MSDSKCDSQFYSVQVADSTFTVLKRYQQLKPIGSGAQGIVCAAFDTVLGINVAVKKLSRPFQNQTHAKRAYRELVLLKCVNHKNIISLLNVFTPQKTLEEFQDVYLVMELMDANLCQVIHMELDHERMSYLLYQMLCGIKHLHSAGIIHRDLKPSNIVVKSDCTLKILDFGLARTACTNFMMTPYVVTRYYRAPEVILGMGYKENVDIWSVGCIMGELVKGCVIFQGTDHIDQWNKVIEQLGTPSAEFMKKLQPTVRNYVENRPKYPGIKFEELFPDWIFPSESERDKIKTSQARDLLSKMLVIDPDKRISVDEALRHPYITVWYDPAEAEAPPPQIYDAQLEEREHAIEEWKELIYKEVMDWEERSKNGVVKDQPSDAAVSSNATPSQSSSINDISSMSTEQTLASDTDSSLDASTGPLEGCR
Description: as §1

Aurora A = Aurora A (Homo sapiens, UniProt O14965)
Description: as §1

IRR = IRR (Homo sapiens, UniProt P14616)
Description: as §1

EPH-B3 = EPH-B3 (Homo sapiens, UniProt P54753)
Description: as §1

PAK5 = PAK5 (Homo sapiens, UniProt Q9P286)
Description: as §1

PAK4 = PAK4 (Homo sapiens, UniProt O96013)
Description: as §1

EPH-B1 = EPH-B1 (Homo sapiens, UniProt P54762)
Description: as §1

NUAK1 = NUAK1 (Homo sapiens, UniProt O60285)
Sequence of NUAK1 (O60285 whole entry, species assumed): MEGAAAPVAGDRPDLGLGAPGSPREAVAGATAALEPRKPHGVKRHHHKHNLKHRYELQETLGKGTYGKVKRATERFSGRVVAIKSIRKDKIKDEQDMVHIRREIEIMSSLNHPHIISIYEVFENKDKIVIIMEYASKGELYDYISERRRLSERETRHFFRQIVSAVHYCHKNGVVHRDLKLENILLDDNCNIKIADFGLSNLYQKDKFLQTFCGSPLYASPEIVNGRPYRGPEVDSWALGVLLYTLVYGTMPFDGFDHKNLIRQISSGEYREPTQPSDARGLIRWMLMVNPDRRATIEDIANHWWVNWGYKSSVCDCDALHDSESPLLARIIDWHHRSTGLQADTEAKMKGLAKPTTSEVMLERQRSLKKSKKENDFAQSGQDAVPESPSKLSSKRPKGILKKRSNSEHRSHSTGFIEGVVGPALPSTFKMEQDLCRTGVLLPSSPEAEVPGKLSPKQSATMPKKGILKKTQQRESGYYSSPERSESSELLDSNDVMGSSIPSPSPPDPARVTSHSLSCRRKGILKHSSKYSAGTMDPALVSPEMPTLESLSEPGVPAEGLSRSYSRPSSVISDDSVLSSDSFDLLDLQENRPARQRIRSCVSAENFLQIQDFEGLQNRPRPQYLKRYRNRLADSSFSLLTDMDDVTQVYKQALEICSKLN
Description: as §1

MELK = MELK (Homo sapiens, UniProt Q14680)
Description: as §1

NEK6 = NEK6 (Homo sapiens, UniProt Q9HC98)
Description: as §1

PRAK = PRAK (Homo sapiens, UniProt Q8IW41)
Sequence of PRAK (Q8IW41 whole entry, species assumed): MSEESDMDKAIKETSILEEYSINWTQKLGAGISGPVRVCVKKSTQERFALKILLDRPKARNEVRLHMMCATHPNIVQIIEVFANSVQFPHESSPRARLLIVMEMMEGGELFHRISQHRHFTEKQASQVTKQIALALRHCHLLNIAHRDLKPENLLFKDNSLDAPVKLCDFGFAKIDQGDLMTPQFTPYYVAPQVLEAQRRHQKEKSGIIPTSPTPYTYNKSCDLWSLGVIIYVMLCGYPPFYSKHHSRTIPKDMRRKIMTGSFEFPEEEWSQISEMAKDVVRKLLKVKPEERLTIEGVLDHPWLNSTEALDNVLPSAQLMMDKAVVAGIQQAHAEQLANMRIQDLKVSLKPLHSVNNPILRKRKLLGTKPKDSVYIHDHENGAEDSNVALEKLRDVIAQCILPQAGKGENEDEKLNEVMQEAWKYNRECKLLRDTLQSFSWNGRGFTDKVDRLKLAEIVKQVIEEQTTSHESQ
Description: as §1

DAPK1 = DAPK1 (Homo sapiens, UniProt P53355)
Description: as §1

PKCγ = PKCγ (Homo sapiens, UniProt P05129)
Description: as §1

TTK = TTK (Homo sapiens, UniProt P33981)
Description: as §1

CHK2 = CHK2 (Homo sapiens, UniProt O96017)
Description: as §1

CLK2 = CLK2 (Homo sapiens, UniProt P49760)
Sequence of CLK2 (P49760 whole entry, species assumed): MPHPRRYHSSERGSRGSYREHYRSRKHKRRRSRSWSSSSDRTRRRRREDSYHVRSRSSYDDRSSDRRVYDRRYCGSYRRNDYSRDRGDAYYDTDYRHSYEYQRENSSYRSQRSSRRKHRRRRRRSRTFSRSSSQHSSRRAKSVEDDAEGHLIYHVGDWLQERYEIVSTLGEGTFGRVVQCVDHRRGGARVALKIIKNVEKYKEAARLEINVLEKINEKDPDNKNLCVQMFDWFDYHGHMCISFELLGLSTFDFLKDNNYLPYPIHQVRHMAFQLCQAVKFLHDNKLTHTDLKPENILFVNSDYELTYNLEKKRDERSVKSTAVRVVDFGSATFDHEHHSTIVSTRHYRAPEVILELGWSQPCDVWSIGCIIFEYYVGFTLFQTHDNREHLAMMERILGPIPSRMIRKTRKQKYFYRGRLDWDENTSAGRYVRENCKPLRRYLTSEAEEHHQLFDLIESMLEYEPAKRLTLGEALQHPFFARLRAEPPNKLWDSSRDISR
Description: as §1

IRAK4 = IRAK4 (Homo sapiens, UniProt Q9NWZ3)
Sequence of IRAK4 (Q9NWZ3 whole entry, species assumed): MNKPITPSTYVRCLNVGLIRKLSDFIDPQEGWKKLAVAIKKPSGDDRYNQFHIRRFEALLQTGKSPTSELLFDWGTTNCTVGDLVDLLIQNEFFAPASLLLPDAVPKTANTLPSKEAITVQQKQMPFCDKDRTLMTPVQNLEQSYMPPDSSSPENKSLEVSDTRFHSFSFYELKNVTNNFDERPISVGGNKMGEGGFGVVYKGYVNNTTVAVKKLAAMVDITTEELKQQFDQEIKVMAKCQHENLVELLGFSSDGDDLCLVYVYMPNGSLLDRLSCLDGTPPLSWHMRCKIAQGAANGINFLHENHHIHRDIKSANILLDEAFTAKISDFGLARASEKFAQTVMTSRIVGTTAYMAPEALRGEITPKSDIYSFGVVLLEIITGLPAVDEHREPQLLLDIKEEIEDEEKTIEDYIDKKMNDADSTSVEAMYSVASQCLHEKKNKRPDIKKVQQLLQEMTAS
Description: as §1

TAO1 = TAO1 (Homo sapiens, UniProt Q7L7X3)
Description: as §1

BTK = BTK (Homo sapiens, UniProt Q06187)
Description: as §1

PDK1 = PDK1 (Homo sapiens, UniProt O15530)
Description: as §1

ZAP70 = ZAP70 (Homo sapiens, UniProt P43403)
Sequence of ZAP70 (P43403 whole entry, species assumed): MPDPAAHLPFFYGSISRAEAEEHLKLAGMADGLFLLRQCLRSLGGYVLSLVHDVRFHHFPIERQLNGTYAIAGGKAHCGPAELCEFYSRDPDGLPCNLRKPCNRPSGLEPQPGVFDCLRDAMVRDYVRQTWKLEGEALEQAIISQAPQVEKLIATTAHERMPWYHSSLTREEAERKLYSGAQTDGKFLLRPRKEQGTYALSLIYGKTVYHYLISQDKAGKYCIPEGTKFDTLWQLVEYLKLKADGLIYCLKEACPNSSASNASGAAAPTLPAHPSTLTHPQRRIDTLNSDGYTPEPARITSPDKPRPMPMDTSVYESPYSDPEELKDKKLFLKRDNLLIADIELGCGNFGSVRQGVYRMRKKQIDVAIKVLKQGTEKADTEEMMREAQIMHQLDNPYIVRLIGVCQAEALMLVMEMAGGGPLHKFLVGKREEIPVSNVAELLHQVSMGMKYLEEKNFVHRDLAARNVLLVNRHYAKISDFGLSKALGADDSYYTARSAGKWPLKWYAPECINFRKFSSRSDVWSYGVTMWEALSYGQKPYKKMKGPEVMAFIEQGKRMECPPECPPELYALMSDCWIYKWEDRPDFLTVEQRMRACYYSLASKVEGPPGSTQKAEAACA
Description: as §1

DYRK2 = DYRK2 (Homo sapiens, UniProt Q92630)
Description: as §1

MARK2 = MARK2 (Homo sapiens, UniProt Q7KZI7)
Description: as §1

PKCz = PKCz (Homo sapiens, UniProt Q05513)
Description: as §1

p38a MAPK = p38a MAPK (Homo sapiens, UniProt Q16539)
Sequence of p38a MAPK (Q16539 whole entry): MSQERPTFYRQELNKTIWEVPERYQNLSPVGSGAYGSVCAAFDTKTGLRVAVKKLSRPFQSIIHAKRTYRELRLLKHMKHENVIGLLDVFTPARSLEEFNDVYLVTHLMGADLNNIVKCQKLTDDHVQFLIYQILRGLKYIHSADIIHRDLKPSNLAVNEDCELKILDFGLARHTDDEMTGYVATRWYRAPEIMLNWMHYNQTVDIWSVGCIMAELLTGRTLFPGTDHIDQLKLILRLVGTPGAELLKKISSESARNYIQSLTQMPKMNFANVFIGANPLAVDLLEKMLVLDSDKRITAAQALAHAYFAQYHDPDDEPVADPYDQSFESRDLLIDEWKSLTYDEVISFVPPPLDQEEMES
Description: as §1

EPH-A2 = EPH-A2 (Homo sapiens, UniProt P29317)
Description: as §1

IGF-1R = IGF-1R (Homo sapiens, UniProt P08069)
Description: as §1

## CN(C)c1ccc2c(c1)Oc1cc(N(C)C)ccc1C21OC(=O)c2cc(C(=O)NCCCC[C@@H](NC(=O)[C@@H](CCCNC(=N)N)NC(=O)[C@@H](CCCNC(=N)N)NC(=O)[C@@H](CCCNC(=N)N)NC(=O)[C@@H](CCCNC(=N)N)NC(=O)[C@@H](CCCNC(=N)N)NC(=O)[C@@H](CCCNC(=N)N)NC(=O)CCCCCNC(=O)[C@@H](CCCNC(=N)N)NC(=O)CCCCCNC(=O)c3ccc(-c4ccnc(N)n4)s3)C(N)=O)ccc21 [ARC-669]
IKKb
  remaining activity at 1 µM: 50%
BRSK1
  remaining activity at 1 µM: 44%
EF2K
  remaining activity at 1 µM: 43%
RSK2
  remaining activity at 1 µM: 4%
GSK3b
  remaining activity at 1 µM: 77%
TIE2
  remaining activity at 1 µM: 86%
MPSK1
  remaining activity at 1 µM: 97%
Lck
  remaining activity at 1 µM: 11%
MST4
  remaining activity at 1 µM: 45%
PIM1
  remaining activity at 1 µM: 3%
ASK1
  remaining activity at 1 µM: 74%
PLK1
  remaining activity at 1 µM: 101%
MARK4
  remaining activity at 1 µM: 86%
GCK
  remaining activity at 1 µM: 10%
JNK2
  remaining activity at 1 µM: 85%
Aurora A
  remaining activity at 1 µM: 86%
IRR
  remaining activity at 1 µM: 32%
EPH-B3
  remaining activity at 1 µM: 75%
PAK5
  remaining activity at 1 µM: 18%
PAK4
  remaining activity at 1 µM: 32%
EPH-B1
  remaining activity at 1 µM: 90%
NUAK1
  remaining activity at 1 µM: 12%
MELK
  remaining activity at 1 µM: 31%
NEK6
  remaining activity at 1 µM: 71%
PRAK
  remaining activity at 1 µM: 63%
DAPK1
  remaining activity at 1 µM: 20%
PKCγ
  remaining activity at 1 µM: 13%
TTK
  remaining activity at 1 µM: 66%
CHK2
  remaining activity at 1 µM: 28%
CLK2
  remaining activity at 1 µM: 1%
IRAK4
  remaining activity at 1 µM: 82%
TAO1
  remaining activity at 1 µM: 94%
BTK
  remaining activity at 1 µM: 36%
PDK1
  remaining activity at 1 µM: 88%
ZAP70
  remaining activity at 1 µM: 82%
DYRK2
  remaining activity at 1 µM: 65%
MARK2
  remaining activity at 1 µM: 77%
PKCz
  remaining activity at 1 µM: 10%
p38a MAPK
  remaining activity at 1 µM: 55%
EPH-A2
  remaining activity at 1 µM: 98%
IGF-1R
  remaining activity at 1 µM: 38%

Source: US20140057284A1, “PHOTOLUMINESCENT MOLECULAR COMPLEX AND METHOD FOR DETERMINING OF THE CONCENTRATION OF SAID MOLECULAR COMPLEX” (priority 2011, published 2014)
